Holding throughout (test): SPOT array
The target in test [1] is Sho1 SH3 (SHO1_YEAST), P40073.
The target of test [2] is T1, Yfr024 SH3 (LSB3_YEAST), P43603.
T1 chain: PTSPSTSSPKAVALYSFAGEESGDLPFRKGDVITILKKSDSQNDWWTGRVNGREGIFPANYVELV

For test [3], the target named is T2, Boi2 SH3 (BOI2_YEAST), P39969.
T2 chain: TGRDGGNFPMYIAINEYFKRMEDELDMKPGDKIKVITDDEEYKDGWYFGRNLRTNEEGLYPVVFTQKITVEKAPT

The target of test [4] is T3, Yhr016c SH3 (YSC84_YEAST), P32793.
T3 chain: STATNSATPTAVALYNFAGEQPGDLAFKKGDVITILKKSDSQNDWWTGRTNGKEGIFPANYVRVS

For test [5], the target named is T4, Boi1 SH3 (BOI1_YEAST), P38041.
T4 chain: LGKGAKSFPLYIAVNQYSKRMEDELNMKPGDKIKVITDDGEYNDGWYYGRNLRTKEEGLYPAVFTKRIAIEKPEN

Test [6] addresses T5, Rvs167 SH3 (RV167_YEAST), P39743.
T5 chain: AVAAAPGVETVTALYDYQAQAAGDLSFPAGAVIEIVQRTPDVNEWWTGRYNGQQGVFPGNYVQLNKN

Test [7] concerns the target T6, Myo5 SH3 (MYO5_YEAST), Q04439.
T6 chain: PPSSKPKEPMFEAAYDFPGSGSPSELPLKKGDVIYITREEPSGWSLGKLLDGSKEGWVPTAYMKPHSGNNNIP

Sho1 SH3 (SHO1_YEAST), P40073, sequence (P40073 295-366): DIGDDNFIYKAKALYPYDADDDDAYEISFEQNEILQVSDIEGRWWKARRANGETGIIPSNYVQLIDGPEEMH

B1: YFR020W 150-163 (peptide)
chain: AFYYKYYPVEPNSN
B1: the normalised SPOT signal, Boehringer light units (BLU); mean over the file's lines of this peptide was found to be 51.5 in test [1]; 115 in test [2]; 52.6 in test [3]; 74.6 in test [4]; 418 in test [5]; 25.5 in test [6]. The molecule also yielded a normalised SPOT signal, Boehringer light units (BLU); mean over the file's lines of this peptide in test [7] of 188.

B2: YBR118W 397-410 (peptide)
chain: AALVKFVPSKPMSV
For B2, the normalised SPOT signal, Boehringer light units (BLU); mean over the file's lines of this peptide in test [1] was found to be 32.5; in test [2] it was 184; in test [3], 79.2; in test [4] it was 55.1; in test [5], 107; in test [6], 106. This molecule also displayed a normalised SPOT signal, Boehringer light units (BLU); mean over the file's lines of this peptide in test [7] of 281.

B3: YKL064W 452-465 (peptide)
chain: AGHIKTHPNSPTPG
With B3, the normalised SPOT signal, Boehringer light units (BLU); mean over the file's lines of this peptide in test [1] was 163; in test [2] it was 0; in test [3], 9; in test [4], 14.3; in test [5], 62.8; in test [6], 21.2. The molecule also displayed a normalised SPOT signal, Boehringer light units (BLU); mean over the file's lines of this peptide in test [7] of 60.3.

B4: YLR371W 185-198 (peptide)
chain: AFVPKRKPSLPQLA
As for B4, the normalised SPOT signal, Boehringer light units (BLU); mean over the file's lines of this peptide in test [1] came out at 78.9; in test [2], 718; in test [3], 16.6; in test [4] it was 47.2; in test [5], 2730; in test [6], 294. For the same molecule, in test [7], the normalised SPOT signal, Boehringer light units (BLU); mean over the file's lines of this peptide was found to be 1740.

B5: YJR016C 376-389 (peptide)
chain: AERAKKAPSLPEGQ
On to B5, for which the normalised SPOT signal, Boehringer light units (BLU); mean over the file's lines of this peptide in test [1] turned out to be 173; in test [2], 44.4; in test [3] it was 42.3; in test [4] it was 0; in test [5], 925; in test [6], 4. Also, in test [7], the normalised SPOT signal, Boehringer light units (BLU); mean over the file's lines of this peptide stood at 389.

B6: YKL189W 13-26 (peptide)
chain: AFWWKKNPKTPSDY
In the case of B6, the normalised SPOT signal, Boehringer light units (BLU); mean over the file's lines of this peptide is 900 in test [1]; 303 in test [2]; 64.4 in test [3]; 112 in test [4]; 110 in test [5]; 72.6 in test [6]. Also, the normalised SPOT signal, Boehringer light units (BLU); mean over the file's lines of this peptide in test [7] came to 65.

B7: YLR291C 296-309 (peptide)
chain: AGLYKLSPLYPFDV
Consider B7, for which the normalised SPOT signal, Boehringer light units (BLU); mean over the file's lines of this peptide stood at 26.3 in test [1]; 0 in test [2]; 0 in test [3]; 17.7 in test [4]; 106 in test [5]; 17.9 in test [6]. Moreover, the normalised SPOT signal, Boehringer light units (BLU); mean over the file's lines of this peptide in test [7] came out at 133.

B8: YMR313C 453-466 (peptide)
chain: YYYYKHYPNMPPIN
In the case of B8, the normalised SPOT signal, Boehringer light units (BLU); mean over the file's lines of this peptide in test [1] stood at 59.1; in test [2] it was 391; in test [3], 273; in test [4], 253; in test [5], 227; in test [6], 310. Also, in test [7], the normalised SPOT signal, Boehringer light units (BLU); mean over the file's lines of this peptide is 288.

B9: YLR216C 44-57 (peptide)
chain: AGMAKTKPDVPLSY
B9: the normalised SPOT signal, Boehringer light units (BLU); mean over the file's lines of this peptide came out at 52.2 in test [1]; 87.4 in test [2]; 0 in test [3]; 27.3 in test [4]; 20.7 in test [5]; 61.7 in test [6]. This molecule showed a normalised SPOT signal, Boehringer light units (BLU); mean over the file's lines of this peptide in test [7] of 158.

B10: YOR264W 26-39 (peptide)
chain: ADDLKYIPPIPQDF
On to B10, for which the normalised SPOT signal, Boehringer light units (BLU); mean over the file's lines of this peptide in test [1] was 59.5; in test [2] it was 6; in test [3] it was 15.8; in test [4] it was 16.1; in test [5], 133; in test [6] it was 69.2. This molecule gave a normalised SPOT signal, Boehringer light units (BLU); mean over the file's lines of this peptide in test [7] of 86.7.

B11: YGL056C 180-193 (peptide)
chain: AEIVKLTPKNPFYK
Turning to B11, the normalised SPOT signal, Boehringer light units (BLU); mean over the file's lines of this peptide amounted to 39.3 in test [1]; 2 in test [2]; 30.2 in test [3]; 8.4 in test [4]; 155 in test [5]; 99.2 in test [6]. The molecule further showed a normalised SPOT signal, Boehringer light units (BLU); mean over the file's lines of this peptide in test [7] of 102.

The values above are taken from paper PMC314469, “Protein Interaction Networks by Proteome Peptide Scanning” (PLoS Biology, 2004).
